Results as given in patent publication US20260274985A1 (MYTHIC THERAPEUTICS, published 2026).
Blank lines part the entries; values can stand above or below the binder they belong to.

Experiments:
[1] = biological target: T1, Human TROP2 Protein, His Tag (Acro Biosystems) (human, UniProt P09758 27-274); experiment: BLI (Octet)
T1 construct: Bought protein; not shown: His tag
T1 sequence (looked up): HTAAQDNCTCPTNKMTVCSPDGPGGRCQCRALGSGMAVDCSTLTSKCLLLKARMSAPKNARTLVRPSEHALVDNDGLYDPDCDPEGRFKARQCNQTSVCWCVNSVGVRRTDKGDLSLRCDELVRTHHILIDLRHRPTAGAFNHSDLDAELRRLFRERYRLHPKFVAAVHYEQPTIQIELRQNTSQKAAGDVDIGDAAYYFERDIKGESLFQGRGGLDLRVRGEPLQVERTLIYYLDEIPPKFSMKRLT

[2] = biological target: T2, Human TROP2 Protein, His Tag (Acro Biosystems) (human, UniProt P09758 27-274); experiment: BLI (Octet) [1/2]
T2 construct: also called TACSTD2; not shown: His tag
T2 sequence (looked up): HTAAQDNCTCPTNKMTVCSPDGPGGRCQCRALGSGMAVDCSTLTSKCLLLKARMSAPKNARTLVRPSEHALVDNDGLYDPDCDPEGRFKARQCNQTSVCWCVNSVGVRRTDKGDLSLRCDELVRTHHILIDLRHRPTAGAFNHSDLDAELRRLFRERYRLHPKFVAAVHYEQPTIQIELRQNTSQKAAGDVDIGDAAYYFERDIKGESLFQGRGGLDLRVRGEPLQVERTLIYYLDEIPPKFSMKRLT

[3] = biological target: T3, TROP2 on TROP2-positive NCI-H1975 cells (human, UniProt P09758 27-323); experiment: binding to TROP2-positive NCI-H1975 cells at pH 7.4
T3 construct: whole, on cells
T3 sequence (looked up): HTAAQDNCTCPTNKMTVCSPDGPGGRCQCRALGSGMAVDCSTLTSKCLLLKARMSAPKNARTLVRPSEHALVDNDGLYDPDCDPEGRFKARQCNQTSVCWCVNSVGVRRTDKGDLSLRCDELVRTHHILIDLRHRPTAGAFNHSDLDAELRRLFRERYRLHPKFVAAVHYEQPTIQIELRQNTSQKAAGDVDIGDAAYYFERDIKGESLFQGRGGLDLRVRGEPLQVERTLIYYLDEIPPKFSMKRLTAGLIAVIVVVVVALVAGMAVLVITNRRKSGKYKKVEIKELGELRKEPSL

[4] = biological target: T4, Human TROP2 Protein, His Tag (Acro Biosystems) (human, UniProt P09758 27-274); experiment: Octet (BLI); antigen and pH not given
T4 construct: not shown: His tag
T4 sequence (looked up): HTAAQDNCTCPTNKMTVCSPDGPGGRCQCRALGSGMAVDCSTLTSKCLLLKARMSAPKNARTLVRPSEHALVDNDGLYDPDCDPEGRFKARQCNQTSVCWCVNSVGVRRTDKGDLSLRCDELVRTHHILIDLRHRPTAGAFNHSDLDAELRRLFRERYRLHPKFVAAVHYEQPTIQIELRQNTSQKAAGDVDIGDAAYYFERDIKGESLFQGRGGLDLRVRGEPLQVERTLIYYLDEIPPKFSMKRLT

[5] = biological target: T3, TROP2 on TROP2-positive NCI-H1975 cells; experiment: binding to TROP2-positive NCI-H1975 cells at pH 6.7

- binding result [1]: binds
B1: MYT11633 (antibody, V domains shown)
VH: QVQLQQSGSELKKPGASVKVSCKASGYTFTNYGMNWVKQAPGQGLKWMGWINTYTGEPTYTDDFKGRFAFSLDTSVSTAYLQISSLKADDTAVYFCARGGFGSSYWYFDVWGQGSLVTVSS
VL: DIQLTQSPSSLSASVGDRVSITCKASQDVSIAVAWYQQKPGKAPKLLIYSASYRYTGVPDRFSGSGSGTDFTLTISSLQPEDFAVYYCQQHYITPHTFGAGTKVEIK
notes: Sacituzumab variant, His at LCV position 96 (L3 08)

- binding result [2]: binds
B2: MYT13394 (antibody, V domains shown)
VH: QVQLQQSGSELKKPGASVKVSCKASGYTFTNYGMNWVKQAPGQGLKWMGWINTYTGEPTYTDHFKGRFAFSLDTSVSTAYLQISSLKADDTAVYFCARGGFGSSYWYFDVWGQGSLVTVSS
VL: DIQLTQSPSSLSASVGDRVSITCKASQDVSIAHAWYQQKPGKAPKLLIYSASHRYTGVPDRFSGSGSGTDFTLTISSLQPEDFAVYYCQQHYITPLTFGAGTKVEIK
notes: Sacituzumab HC-LC pairing variant

- binding result [2]: binds
B3: MYT13389 (antibody, V domains shown)
VH: QVQLQQSGSELKKPGASVKVSCKASGYTFTNYGMNWVKQAPGQGLKWMGWINTYTGEPTYTDDFKHRFAFSLDTSVSTAYLQISSLKADDTAVYFCARGGFGSSYWYFDVWGQGSLVTVSS
VL: DIQLTQSPSSLSASVGDRVSITCKASQDVHIAVAWYQQKPGKAPKLLIYSAHYRYTGVPDRFSGSGSGTDFTLTISSLQPEDFAVYYCQQHYITPLTFGAGTKVEIK
notes: as for B2

- binding result [2]: binds
B4: MYT13397 (antibody, V domains shown)
VH: QVQLQQSGSELKKPGASVKVSCKASGYTFTNYGMNWVKQAPGQGLKWMGWINTYTGEPTYTDDFKHRFAFSLDTSVSTAYLQISSLKADDTAVYFCARGGFGSSYWYFDVWGQGSLVTVSS
VL: DIQLTQSPSSLSASVGDRVSITCKASQDVSIAHAWYQQKPGKAPKLLIYSASHRYTGVPDRFSGSGSGTDFTLTISSLQPEDFAVYYCQQHYITPLTFGAGTKVEIK
notes: as for B2

- binding result [1]: binds
B5: MYT11634 (antibody, V domains shown)
VH: QVQLQQSGSELKKPGASVKVSCKASGYTFTNYGMNWVKQAPGQGLKWMGWINTYTGEPTYTDDFKGRFAFSLDTSVSTAYLQISSLKADDTAVYFCARGGFGSSYWYFDVWGQGSLVTVSS
VL: DIQLTQSPSSLSASVGDRVSITCKASQDVSIAVAWYQQKPGKAPKLLIYSASYRYTGVPDRFSGSGSGTDFTLTISSLQPEDFAVYYCQQHYITPLHFGAGTKVEIK
notes: Sacituzumab variant, His at LCV position 97 (L3 09)

- binding result [2]: binds
B6: MYT13381 (antibody, V domains shown)
VH: QVQLQQSGSELKKPGASVKVSCKASGYTFTNYGMNWVKQAPGQGLKWMGWINTYTGEPTYTDDFKHRFAFSLDTSVSTAYLQISSLKADDTAVYFCARGGFGSSYWYFDVWGQGSLVTVSS
VL: DIQLTQSPSSLSASVGDRVSITCKASQDVHIAVAWYQQKPGKAPKLLIYSHSYRYTGVPDRFSGSGSGTDFTLTISSLQPEDFAVYYCQQHYITPLTFGAGTKVEIK
notes: as for B2

- binding result [2]: binds
B7: MYT13375 (antibody, V domains shown)
VH: QVQLQQSGSELKKPGASVKVSCKASGYTFTNYHMNWVKQAPGQGLKWMGWINTYTGEPTYTDDFKGRFAFSLDTSVSTAYLQISSLKADDTAVYFCARGGFGSSYWYFDVWGQGSLVTVSS
VL: DIQLTQSPSSLSASVGDRVSITCKASQDVHIAVAWYQQKPGKAPKLLIYSHSYRYTGVPDRFSGSGSGTDFTLTISSLQPEDFAVYYCQQHYITPLTFGAGTKVEIK
notes: as for B2

- IC50 [3]: 0.81 nM
- Kd [4]: 3.9 nM
- Octet response at 33.33 nM (Y-Axis) nm [4]: 0.135 nm
- IC50 [5]: 2.66 nM
B8: MYT13425 (antibody, human IgG1, V domains shown)
VH: QVQLQQSGSELKKPGASVKVSCKASGYTFTNYGMNWVKQAPGQGLKWMGWINTYTGEPTYTHDFKGRFAFSLDTSVSTAYLQISSLKADDTAVYFCARGGFGSSYWYFDVWGQGSLVTVSS
VL: DIQLTQSPSSLSASVGDRVSITCKASQDVHIAVAWYQQKPGKAPKLLIYSHSYRYTGVPDRFSGSGSGTDFTLTISSLQPEDFAVYYCQQHYHTPLTFGAGTKVEIK
notes: IgG; also called Sacituzumab HC-LC pairing variant

- IC50 [3]: 1 nM
- Kd [4]: 2.12 nM
- Octet response at 33.33 nM (Y-Axis) nm [4]: 0.134 nm
- IC50 [5]: 4.39 nM
B9: MYT13427 (antibody, human IgG1, V domains shown)
VH: QVQLQQSGSELKKPGASVKVSCKASGYTFTNYGMNWVKQAPGQGLKWMGWINTYTGEPTYTDDHKGRFAFSLDTSVSTAYLQISSLKADDTAVYFCARGGFGSSYWYFDVWGQGSLVTVSS
VL: DIQLTQSPSSLSASVGDRVSITCKASQDVHIAVAWYQQKPGKAPKLLIYSHSYRYTGVPDRFSGSGSGTDFTLTISSLQPEDFAVYYCQQHYHTPLTFGAGTKVEIK
notes: as for B8

- binding result [2]: binds
B10: MYT13380 (antibody, V domains shown)
VH: QVQLQQSGSELKKPGASVKVSCKASGYTFTNYGMNWVKQAPGQGLKWMGWINTYTGEPTYTDDFHGRFAFSLDTSVSTAYLQISSLKADDTAVYFCARGGFGSSYWYFDVWGQGSLVTVSS
VL: DIQLTQSPSSLSASVGDRVSITCKASQDVHIAVAWYQQKPGKAPKLLIYSHSYRYTGVPDRFSGSGSGTDFTLTISSLQPEDFAVYYCQQHYITPLTFGAGTKVEIK
notes: as for B2

- binding result [2]: binds
B11: MYT13367 (antibody, V domains shown)
VH: QVQLQQSGSELKKPGASVKVSCKASGYTFTNYHMNWVKQAPGQGLKWMGWINTYTGEPTYTDDFKGRFAFSLDTSVSTAYLQISSLKADDTAVYFCARGGFGSSYWYFDVWGQGSLVTVSS
VL: DIQLTQSPSSLSASVGDRVSITCKASQDVHIAHAWYQQKPGKAPKLLIYSASYRYTGVPDRFSGSGSGTDFTLTISSLQPEDFAVYYCQQHYITPLTFGAGTKVEIK
notes: as for B2

- binding result [2]: binds
B12: MYT13390 (antibody, V domains shown)
VH: QVQLQQSGSELKKPGASVKVSCKASGYTFTNHGMNWVKQAPGQGLKWMGWINTYTGEPTYTDDFKGRFAFSLDTSVSTAYLQISSLKADDTAVYFCARGGFGSSYWYFDVWGQGSLVTVSS
VL: DIQLTQSPSSLSASVGDRVSITCKASQDVSIAHAWYQQKPGKAPKLLIYSASHRYTGVPDRFSGSGSGTDFTLTISSLQPEDFAVYYCQQHYITPLTFGAGTKVEIK
notes: as for B2

- binding result [2]: binds
B13: MYT13396 (antibody, V domains shown)
VH: QVQLQQSGSELKKPGASVKVSCKASGYTFTNYGMNWVKQAPGQGLKWMGWINTYTGEPTYTDDFHGRFAFSLDTSVSTAYLQISSLKADDTAVYFCARGGFGSSYWYFDVWGQGSLVTVSS
VL: DIQLTQSPSSLSASVGDRVSITCKASQDVSIAHAWYQQKPGKAPKLLIYSASHRYTGVPDRFSGSGSGTDFTLTISSLQPEDFAVYYCQQHYITPLTFGAGTKVEIK
notes: as for B2

- binding result [2]: binds
B14: MYT13391 (antibody, V domains shown)
VH: QVQLQQSGSELKKPGASVKVSCKASGYTFTNYHMNWVKQAPGQGLKWMGWINTYTGEPTYTDDFKGRFAFSLDTSVSTAYLQISSLKADDTAVYFCARGGFGSSYWYFDVWGQGSLVTVSS
VL: DIQLTQSPSSLSASVGDRVSITCKASQDVSIAHAWYQQKPGKAPKLLIYSASHRYTGVPDRFSGSGSGTDFTLTISSLQPEDFAVYYCQQHYITPLTFGAGTKVEIK
notes: as for B2

- binding result [2]: binds
B15: MYT13384 (antibody, V domains shown)
VH: QVQLQQSGSELKKPGASVKVSCKASGYTFTNYGMNWVKQAPGQGLKWMGWINTYTGEPTHTDDFKGRFAFSLDTSVSTAYLQISSLKADDTAVYFCARGGFGSSYWYFDVWGQGSLVTVSS
VL: DIQLTQSPSSLSASVGDRVSITCKASQDVHIAVAWYQQKPGKAPKLLIYSAHYRYTGVPDRFSGSGSGTDFTLTISSLQPEDFAVYYCQQHYITPLTFGAGTKVEIK
notes: as for B2

- IC50 [3]: 1.56 nM
- Kd [4]: 2.08 nM
- Octet response at 33.33 nM (Y-Axis) nm [4]: 0.141 nm
- IC50 [5]: 8.29 nM
B16: MYT13428 (antibody, human IgG1, V domains shown)
VH: QVQLQQSGSELKKPGASVKVSCKASGYTFTNYGMNWVKQAPGQGLKWMGWINTYTGEPTYTDDFHGRFAFSLDTSVSTAYLQISSLKADDTAVYFCARGGFGSSYWYFDVWGQGSLVTVSS
VL: DIQLTQSPSSLSASVGDRVSITCKASQDVHIAVAWYQQKPGKAPKLLIYSHSYRYTGVPDRFSGSGSGTDFTLTISSLQPEDFAVYYCQQHYHTPLTFGAGTKVEIK
notes: as for B8

- binding result [2]: binds
B17: MYT13393 (antibody, V domains shown)
VH: QVQLQQSGSELKKPGASVKVSCKASGYTFTNYGMNWVKQAPGQGLKWMGWINTYTGEPTYTHDFKGRFAFSLDTSVSTAYLQISSLKADDTAVYFCARGGFGSSYWYFDVWGQGSLVTVSS
VL: DIQLTQSPSSLSASVGDRVSITCKASQDVSIAHAWYQQKPGKAPKLLIYSASHRYTGVPDRFSGSGSGTDFTLTISSLQPEDFAVYYCQQHYITPLTFGAGTKVEIK
notes: as for B2
